Test results: patent US20170037110A1 (IMMATICS BIOTECHNOLOGIES, published 2017)

Target: T1, HLA-A*02:01 (human)
T1 construct: monomers captured on streptavidin plates; also called MHC class I
Experiment: UV peptide exchange ELISA
In short: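 Read-out is an ELISA on the UV-exchange reaction: monomers, diluted 100-fold, are captured on streptavidin and the β2m light chain is detected with 2 μg/ml HRP antibody and TMB at 450 nm.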

VLLDDIFAQL
peptide exchange yield: 50 to 75%

YLQDVVEQA
peptide exchange yield: 50 to 75%

VLADIELAQA
peptide exchange yield: 50 to 75%

ILLDVKTRL
peptide exchange yield: ≥ 75%

ALVNVQIPL
peptide exchange yield: 50 to 75%

SLSDGLEEV
peptide exchange yield: 20 to 50%

YSLSSVVTV
peptide exchange yield: 50 to 75%

KLLGKLPEL
peptide exchange yield: 50 to 75%

LLDSKVPSV
peptide exchange yield: 50 to 75%

SLLELLHIYV
peptide exchange yield: 50 to 75%

YLLPESVDL
peptide exchange yield: 50 to 75%

VLDELDMEL
peptide exchange yield: 20 to 50%

ILLERLWYV
peptide exchange yield: 50 to 75%

YLLETSGNL
peptide exchange yield: 50 to 75%

RLYTGMHTV
peptide exchange yield: 50 to 75%

GLFDGVPTTA
peptide exchange yield: 50 to 75%

SLFKHDPAAWEA
peptide exchange yield: ≥ 75%

HLLSELEAAPYL
peptide exchange yield: ≥ 75%

ALLGQTFSL
peptide exchange yield: 50 to 75%

FIMPATVADATAV
peptide exchange yield: 50 to 75%

YLFEMDSSL
peptide exchange yield: 20 to 50%

KVDTVWVNV
peptide exchange yield: 50 to 75%

YLISELEAA
peptide exchange yield: 50 to 75%

KMFEFVEPLL
peptide exchange yield: ≥ 75%

GLINTGVLSV
peptide exchange yield: 20 to 50%

FLPEALDFV
peptide exchange yield: 50 to 75%

FLVEDLVDSL
peptide exchange yield: 50 to 75%

GLFEDVTQPGILL
peptide exchange yield: ≥ 75%

SLIPNLRNV
peptide exchange yield: 50 to 75%

FLPDANSSV
peptide exchange yield: 20 to 50%

FLYDEIEAEV
peptide exchange yield: 50 to 75%

TLMTSLPAL
peptide exchange yield: 50 to 75%

KVLDVSDLESV
peptide exchange yield: 20 to 50%

SMHDLVLQV
peptide exchange yield: 50 to 75%

MTLGQIYYL
peptide exchange yield: 50 to 75%

SLLEVNEESTV
peptide exchange yield: 50 to 75%

GLWEIENNPTVKA
peptide exchange yield: ≥ 75%

VLDRESPNV
peptide exchange yield: 50 to 75%

VLFDDELLMV
peptide exchange yield: 50 to 75%

HIYDKVMTV
peptide exchange yield: 50 to 75%

VMITKLVEV
peptide exchange yield: 50 to 75%

VIWKALIHL
peptide exchange yield: 50 to 75%

FLPDEPYIKV
peptide exchange yield: 50 to 75%

SLEPQIQPV
peptide exchange yield: 20 to 50%

SLAALVVHV
peptide exchange yield: 50 to 75%

ALLELAEEL
peptide exchange yield: 50 to 75%

ALIAEGIALV
peptide exchange yield: 50 to 75%

QLALKVEGV
peptide exchange yield: 50 to 75%

ALNDQVFEI
peptide exchange yield: 50 to 75%

SQYSGQLHEV
peptide exchange yield: 50 to 75%

ALDEYTSEL
peptide exchange yield: ≥ 75%

RMIEYFIDV
peptide exchange yield: 50 to 75%

ALYELEGTTV
peptide exchange yield: 50 to 75%

ALLQEGEVYSA
peptide exchange yield: 50 to 75%

TLTKVLVAL
peptide exchange yield: 50 to 75%

LILEGVDTV
peptide exchange yield: 20 to 50%

LLQNEQFEL
peptide exchange yield: 50 to 75%

SIANFSEFYV
peptide exchange yield: ≥ 75%

IISDLTIAL
peptide exchange yield: 50 to 75%

FLVTLNNVEV
peptide exchange yield: ≥ 75%

ALLDVTHSELTV
peptide exchange yield: 50 to 75%

GLAPFTEGISFV
peptide exchange yield: 50 to 75%

IMEENPGIFAV
peptide exchange yield: 50 to 75%

AILPQLFMV
peptide exchange yield: ≥ 75%

ILLTAIVQV
peptide exchange yield: 50 to 75%

FLVDTPLARA
peptide exchange yield: ≥ 75%

ALPVSLPQI
peptide exchange yield: 50 to 75%

SQIALNEKLVNL
peptide exchange yield: 50 to 75%

SIQQSIERLLV
peptide exchange yield: 20 to 50%

FMEGAIIYV
peptide exchange yield: 50 to 75%

TLYGLSVLL
peptide exchange yield: 50 to 75%

YLQDQHLLLTV
peptide exchange yield: 50 to 75%

ALLSMTFPL
peptide exchange yield: ≥ 75%
